Reference: patent US20240325557A1, “TREATMENT OF CANCER” (INNATE PHARMA, priority 2020, published 2024)
Positions count from the first letter of the chain named. Like-named read-outs stand apart in the source and are kept apart here.

T1: Nectin-4 on SUM185 cells (Homo sapiens, UniProt Q96NY8)
T1 construct: host or cells: SUM185
T1 sequence (Q96NY8 32-510): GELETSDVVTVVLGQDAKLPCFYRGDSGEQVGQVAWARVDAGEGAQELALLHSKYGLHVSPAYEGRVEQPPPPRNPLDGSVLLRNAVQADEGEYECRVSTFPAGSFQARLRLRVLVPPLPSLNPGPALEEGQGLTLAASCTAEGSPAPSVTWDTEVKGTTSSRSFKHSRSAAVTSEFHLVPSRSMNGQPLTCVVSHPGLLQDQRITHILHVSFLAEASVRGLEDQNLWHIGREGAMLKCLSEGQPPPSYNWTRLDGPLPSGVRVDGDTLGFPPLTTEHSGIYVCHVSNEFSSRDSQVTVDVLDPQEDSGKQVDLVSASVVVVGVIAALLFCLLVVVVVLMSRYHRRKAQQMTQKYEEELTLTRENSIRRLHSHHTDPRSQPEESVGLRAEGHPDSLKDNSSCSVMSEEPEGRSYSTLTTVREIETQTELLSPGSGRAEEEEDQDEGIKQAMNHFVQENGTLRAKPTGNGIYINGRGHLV

B1: N41 (antibody, V domains shown)
VH: QVQLKQSGPGLVQPSQSLSITCTVSGFSLTNYGVHWVRQSPGKGLEWLGVIWSGGSTDYNAAFISRLSISKDTSKSQVFFKMNSLQADDTAIYYCARELIHAMDNWGQGTSVTVSS
VL: DIQMTQSPASLSVSVGETVTITCRASENIYSNLAWYQQKQGNSPQLLVFAATNLADGVPSRFSGSGSGTQYSLKINSLQSEDFGTYYCQHFWGTPTFGGGTKLEIK
B2: 5E7 (antibody, V domains shown)
VH: QVQLQQPGAELVKPGASVKLSCKASGYIFTSYWMHWVKQRPGQGLEWIGEIDPSDSYTNYNQKFKGKATLTLDKSSSTTYMQLSSLTSEDSAVYYCVRGYGNYGDYWGQGTTLTVSS
VL: DVVMTQAAFSNPVTLGTSASISCRSSKSLLHSNGITYLYWYLQKPGQSPQLLIYQMSNLASGVPDRFSSSGSGTDFTLRISRVEAEDVGVYYCAQNLELPWTFGGGTKLEIK
B3: 10B12: anti-Nectin-4 antibody, VH SEQ ID NO: 24, VL SEQ ID NO: 25, binds junction of domain C1 and V (antibody, listed as Mus musculus, V domains shown)
VH: B2 VH with I28T, L72V, T79A
VL: B2 VL with V2I

Legend:
SUM190 cells [1] = test: In vivo efficacy of ADCs, SUM190 mouse model of human breast cancer (Example 9); conditions: single i.v. injection 3 mg/kg; antibodies conjugated to ggfg-Dxd, DAR=8
Protocol: When tumors reached a volume between 195 and 250 mm3, mice were randomized into groups of 9 mice for intravenous treatment with a single injection of 3 mg/kg of camptothecin ADCs. Tumor growth were followed twice a week. Kaplan Meier survival curves were established by using GraphPad Prism V7 software according to the following criteria: When the tumor volume reached 1500 mm3, mice were euthanized and considered dead on the day of sacrifice (D).

Nectin-4 on SUM185 cells = target: T1, Nectin-4 on SUM185 cells; test: Flow cytometry titration on SUM185 cells; format: binding; conditions: cells detached with trypsin
Protocol: In this experiment, the ability of anti-Nectin-4 Abs to bind to Nectin-4 on SUM185 cells (expressing relatively high levels of Nectin-4) was assessed by flow cytometry. […] Briefly, SUM185 cells were detached from the flask with trypsin (37° C. for 5 min) and then washed once with media. 50 000 cells were incubated with a concentration range of test antibodies starting from 20 μg/ml (8 points, dilution factor 4) for 30 minutes at 4° C. […] Cells were washed twice with ice-cold SB. Acquisition was done on a flow cytometer.

SUM185 cells = test: Fab-ZAP internalization assay (CTG cell viability); format: cell-based, human
Protocol: The ability of the anti-Nectin-4 antibodies to induce nectin-4 internalization was assessed on SUM190 cell lines expressing lower levels of nectin-4 and in SUM185 cells expressing higher levels of Nectin-4. The internalization was indirectly determined by using the Fab-ZAP human Internalization Kit (Advanced Targeting Systems) to allow the anti-Nectin-4 antibodies to target and eliminate Nectin-4 expressing cells, with measurement of cell viability using the CTG substrate (CellTiter-Glo® Luminescent Cell Viability Assay (Promega). Fab-ZAP is a chemical conjugate of goat anti-human monovalent antibody and the ribosome-inactivating protein, saporin. The antibodies used are affinity-purified polyclonal antibodies against both the heavy and light chain of human IgG. This secondary conjugate is used to evaluate the potential of a primary antibody to internalize.
Briefly, a concentration range of the anti-Nectin-4 antibodies or the controls were incubated with SUM190 or SUM185 cells. After 45-minute incubation at 4° C., the non-bound antibodies were washed away and Fab-ZAP was added on top of the cells. The newly formed complexes (anti-nectin-4 antibody+Fab-ZAP) internalized into the cells where the Saporin was released and stopped the protein synthesis leading to cell death. The internalization capability of the antibody was indirectly determined by the cell's viability: the more efficient was the cell killing; the better was the internalization capability of the antibody.

SUM190 cells [2] = test: In vitro ADC cytotoxicity, 5 days, CTG; format: cell-based, human; conditions: antibodies conjugated to ggfg-Dxd or PEG (8U)-Val-Ala-PAB-Exatecan, DAR=8
Protocol: We assessed the ability of the 5E7 antibody (mAb6) conjugated with camptothecin analogues (Dxd or Exatecan) to kill SUM190 cells. […] A first ADC was prepared in which antibodies were conjugated at 8 toxins per antibody (DAR=8) to a camptothecin analogue (Dxd) via a linker comprising an intracellularly cleavable tetrapeptide linker (GGFG) having the structure shown below, referred to as ggfg-Dxd:
A second ADC was prepared in which antibodies were conjugated at 8 toxins per antibody (DAR=8) to another camptothecin analogue (exatecan) via the cleavable linker having the structure below, referred to as PEG (8U)-Val-Ala-PAB-Exatecan:
Luminescence vs. Ab concentration was plotted on graph.
For each ADC, a concentration range of ADC was incubated with nectin-4-expressing cells. After incubation, CTG substrate was added at 1/1 ratio and the luminescent signal was read with a plate reader (Enspire). It allowed quantifying the ATP present (indicator of metabolically active cells) which was proportional to cell viability.

rat Nectin-4 = test: Flow cytometry species cross-reactivity on CHO cells; format: binding
Sequence of rat Nectin-4 (as listed by the source): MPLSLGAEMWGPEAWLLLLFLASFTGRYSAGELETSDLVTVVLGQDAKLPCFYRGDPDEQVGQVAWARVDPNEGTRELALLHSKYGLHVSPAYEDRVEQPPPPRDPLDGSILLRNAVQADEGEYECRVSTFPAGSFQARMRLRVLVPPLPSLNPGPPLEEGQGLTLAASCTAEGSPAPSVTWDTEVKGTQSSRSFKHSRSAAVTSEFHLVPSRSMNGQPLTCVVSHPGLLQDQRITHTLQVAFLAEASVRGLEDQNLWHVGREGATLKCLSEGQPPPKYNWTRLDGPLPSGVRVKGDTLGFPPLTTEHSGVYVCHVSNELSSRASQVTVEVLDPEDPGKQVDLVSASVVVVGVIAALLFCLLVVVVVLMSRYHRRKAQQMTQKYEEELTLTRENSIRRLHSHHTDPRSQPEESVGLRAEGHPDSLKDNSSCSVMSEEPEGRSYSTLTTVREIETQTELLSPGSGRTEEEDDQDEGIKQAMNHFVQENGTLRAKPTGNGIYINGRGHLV
Protocol: Anti-Nectin-4 antibodies were tested by flow cytometry for binding to different CHO cell lines made to express respectively the mouse, cynomolgus and rat Nectin-4 protein (including an N-terminal V5 tag not shown in the sequences below).

Row | Molecule | control of tumor growth (SUM190 cells [1]) | binding profile on SUM185 cells (Nectin-4 on SUM185 cells) | induction of internalization (SUM185 cells) | killing of SUM190 cells (cell viability) (SUM190 cells [2]) | binding to rat Nectin-4 expressing CHO cells (rat Nectin-4) | binding to rat Nectin-4 expressing CHO cells (rat Nectin-4; listed as mAb6) | binding to rat Nectin-4 expressing CHO cells (rat Nectin-4; listed as mAb7)
1 | B1 | no longer showed the ability to control tumor growth |  |  |  |  |  | 
2 | B2 | strong ability to prevent tumor growth | lower plateau for binding to the SUM185 cells | more efficient than enfortumab in inducing internalization | more potent that mAb3 conjugated to camptothecin analogue | showed binding to rat Nectin 4 expressing cells | bind to rat Nectin-4 | 
3 | B3 |  | lower plateau for binding to the SUM185 cells |  |  | showed binding to rat Nectin 4 expressing cells |  | bind to rat Nectin-4
